Laboratory results as given in US20190309079A1 (Regeneron, published 2019).

Target: T1, wild-type LEPR on HEK293 reporter cells (UniProt P48357 22-1165, limits assumed)
T1 sequence (looked up): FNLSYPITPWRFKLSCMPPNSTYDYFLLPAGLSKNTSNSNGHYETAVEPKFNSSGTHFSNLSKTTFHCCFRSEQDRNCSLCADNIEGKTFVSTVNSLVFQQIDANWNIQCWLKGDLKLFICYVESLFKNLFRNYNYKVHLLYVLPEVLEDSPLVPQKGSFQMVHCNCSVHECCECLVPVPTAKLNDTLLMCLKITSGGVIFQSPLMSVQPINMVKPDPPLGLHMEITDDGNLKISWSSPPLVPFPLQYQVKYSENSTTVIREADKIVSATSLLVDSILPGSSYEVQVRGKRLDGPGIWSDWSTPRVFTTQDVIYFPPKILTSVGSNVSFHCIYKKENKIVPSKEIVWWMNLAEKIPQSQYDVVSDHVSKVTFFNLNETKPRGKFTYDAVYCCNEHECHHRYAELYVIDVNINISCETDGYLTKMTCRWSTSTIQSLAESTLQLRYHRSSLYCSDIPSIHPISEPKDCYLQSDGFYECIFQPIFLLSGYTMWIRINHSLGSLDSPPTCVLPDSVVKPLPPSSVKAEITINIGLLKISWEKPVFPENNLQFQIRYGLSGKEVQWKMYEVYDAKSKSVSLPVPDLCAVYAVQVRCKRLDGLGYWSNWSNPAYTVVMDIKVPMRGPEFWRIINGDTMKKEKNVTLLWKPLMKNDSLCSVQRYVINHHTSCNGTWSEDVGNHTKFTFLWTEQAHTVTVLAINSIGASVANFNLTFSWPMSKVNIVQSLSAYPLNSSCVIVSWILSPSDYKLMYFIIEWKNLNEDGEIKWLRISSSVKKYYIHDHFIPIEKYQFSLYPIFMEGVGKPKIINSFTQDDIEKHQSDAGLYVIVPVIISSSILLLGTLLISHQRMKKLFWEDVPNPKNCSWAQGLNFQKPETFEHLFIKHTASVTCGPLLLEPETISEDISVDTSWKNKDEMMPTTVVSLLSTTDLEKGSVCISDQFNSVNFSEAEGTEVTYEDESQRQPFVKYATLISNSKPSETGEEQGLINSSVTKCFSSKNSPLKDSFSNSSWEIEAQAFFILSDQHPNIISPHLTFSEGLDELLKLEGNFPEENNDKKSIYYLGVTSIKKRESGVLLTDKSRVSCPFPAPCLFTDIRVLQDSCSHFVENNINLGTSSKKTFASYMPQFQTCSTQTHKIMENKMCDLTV
Assay: cell-based or functional assay

- EC50 (read off the curve), pSTAT3 Y705/STAT3 densitometry: ~3e-10 M
B1: H4H16679P2 (antibody, V domains shown)
VH: QVQLVESGGGVVQPGRSLRLSCTASGFTFSSYAMYWVRQAPGKGLEWVSVIYYDGSYKYYADSVKGRFTISRDNSKNTLYLQMDSLRAEDTAVYYCASYNWNYWYFDFWGRGTLVTVSS
VL: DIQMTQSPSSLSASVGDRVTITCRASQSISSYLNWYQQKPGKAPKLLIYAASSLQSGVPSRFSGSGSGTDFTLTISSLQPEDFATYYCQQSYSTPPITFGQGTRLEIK
